Positions count from the first letter of the chain named. Blank lines part the entries; values can stand above or below the binder they belong to.
What was measured:
[1] = target: T1, hPD-L1 (Acro Biosystems, PD1-H5229) (human, UniProt Q9NZQ7 19-238); experiment: ELISA, hPD-L1 coated, anti-human Fc-HRP, OD450
T1 construct: also called human PD-L1; hPD-L1 protein

[2] = target: cynoPD-L1-Fc (cynomolgus, UniProt G7PSE7 19-238, Fc carrier is left out of the letters.); experiment: competition ELISA, cynoPD-L1-Fc coated; blocked ligand cyno PD-1-Fc-biotin, OD450
[3] = target: T2, human PD-L1 expressed on cells (human, UniProt Q9NZQ7 19-290); experiment: cell-based or functional assay
[4] = target: T2, human PD-L1 expressed on cells; experiment: flow cytometry on MC38/hPD-L1 cells, Mean FITC-A
[5] = target: T2, human PD-L1 expressed on cells; experiment: flow cytometry on NCI-H460 cells, Mean FITC-A
[6] = target: T3, human TGFβ1 (human, UniProt P01137 279-390); experiment: bridging ELISA, hTGFβ-1 coated, detected with hPD-L1-biotin and streptavidin-HRP
T3 construct: also called hTGFβ-1; TGFb1

[7] = target: T2, human PD-L1 expressed on cells; experiment: flow cytometry on activated human T cells, Mean FITC-A
[8] = target: T2, human PD-L1 expressed on cells; experiment: flow cytometry on NCI-H292 cells, Mean FITC-A
[9] = target: T2, human PD-L1 expressed on cells; experiment: flow cytometry on 293T-PD-L1-CD3L cells, PE anti-human IgG, Mean PE-A
[10] = target: T1, hPD-L1 (Acro Biosystems, PD1-H5229); experiment: ELISA, hPD-L1 coated, anti-human Fc-HRP, OD450; remark: listed apart in the source
[11] = target: cynomolgus PD-L1 on activated cynomolgus T cells (cynomolgus, UniProt G7PSE7 19-290); experiment: flow cytometry on PHA-activated cynomolgus PBMC (T cells), Mean APC-A
[12] = target: T2, human PD-L1 expressed on cells; experiment: flow cytometry on PHA-activated human PBMC (T cells), Mean APC-A
[13] = target: T2, human PD-L1 expressed on cells; experiment: flow cytometry on EMT6/hPD-L1 cells, Mean FITC-A
[14] = target: T2, human PD-L1 expressed on cells; experiment: flow cytometry on 293T-PD-L1-CD3L cells, Mean FITC-A as printed
[15] = target: T2, human PD-L1 expressed on cells; experiment: cell-based or functional assay; remark: listed apart in the source
[16] = target: T4, human PD-L1-Fc (human, UniProt Q9NZQ7 19-239); experiment: competition ELISA, hPD-L1-Fc coated; blocked ligand hPD-1-Fc-biotin, OD450
T4 construct: also called hPD-L1-Fc; human PD-L1-Fc (Sino Biological, 70110-D02H); not shown: Fc part

[17] = target: T2, human PD-L1 expressed on cells; experiment: cell-based or functional assay; remark: listed apart in the source
[18] = target: T1, hPD-L1 (Acro Biosystems, PD1-H5229); experiment: ELISA on human PD-L1, OD450
[19] = target: human CD47 (human, UniProt Q08722 19-139, limits assumed); experiment: ELISA on human CD47, OD450
[20] = target: T5, Human IL-1β protein (Sino Biological, Cat #10139) (human, UniProt P01584 117-269); experiment: cell-based or functional assay
[21] = target: T5, Human IL-1β protein (Sino Biological, …); experiment: ELISA, hIL-1β protein coated, anti-human Fc-HRP, OD450

Chain of human CD47 (Q08722 19-139 limits assumed): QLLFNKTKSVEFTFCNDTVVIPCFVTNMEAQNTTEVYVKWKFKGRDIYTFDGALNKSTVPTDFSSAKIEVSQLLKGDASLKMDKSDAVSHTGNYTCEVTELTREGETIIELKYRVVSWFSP
T3 sequence (P01137 279-390 limits assumed): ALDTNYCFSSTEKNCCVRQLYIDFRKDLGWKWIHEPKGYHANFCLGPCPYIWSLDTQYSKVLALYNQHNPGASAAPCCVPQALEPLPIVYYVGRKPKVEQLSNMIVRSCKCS
Chain of cynomolgus PD-L1 on activated cynomolgus T cells (G7PSE7 entry or part of it limits assumed): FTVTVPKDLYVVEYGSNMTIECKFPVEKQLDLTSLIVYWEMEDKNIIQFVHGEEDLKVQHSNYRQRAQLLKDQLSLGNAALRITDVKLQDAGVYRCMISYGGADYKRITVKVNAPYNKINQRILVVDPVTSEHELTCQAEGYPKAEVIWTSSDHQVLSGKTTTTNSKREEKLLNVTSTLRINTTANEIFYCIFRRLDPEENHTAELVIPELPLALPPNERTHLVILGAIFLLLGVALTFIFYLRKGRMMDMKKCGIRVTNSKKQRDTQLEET
Chain of cynoPD-L1-Fc (G7PSE7 entry or part of it limits assumed): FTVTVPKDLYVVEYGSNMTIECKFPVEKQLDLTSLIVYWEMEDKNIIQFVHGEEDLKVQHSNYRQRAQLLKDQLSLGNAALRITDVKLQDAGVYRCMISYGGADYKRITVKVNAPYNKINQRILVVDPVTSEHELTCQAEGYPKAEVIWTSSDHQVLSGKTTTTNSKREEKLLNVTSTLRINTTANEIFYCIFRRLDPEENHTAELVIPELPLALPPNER

B1: AM4B6-hIgG1 monoclonal antibody (antibody, V domains shown)
VH: QVQLVQSGAEVKKPGASVKVSCKASGYVFTDYYMNWVRQAPGQSLEWMGDINPNNAETLYNHKFKGRVTVTVDKSISTAYMELSRLRSDDTAVYYCVKWGDGPFAYWGQGTLVTVSS
VL: DIQMTQSPSSLSASVGDRVTITCKASQNVGAAVAWYQQKPGKAPKLLIYSVSDRYTGVPSRFSGSGSGTDFTLTISSLQPEDIATYYCQQYSNYPTFGQGTKLEIK
notes: hIgG1; also called AM4B6 mAb; AM4B6 monoclonal antibody
EC50 [1]: 0.0313 nM
IC50 [2]: 2.06 nM
IC50 (so in the source), NFAT-luciferase luminescence, 293T-PD-L1-CD3L cells with Jurkat-NFAT-Luc-PD1 cells [3]: 1.08 nM
EC50 [4]: 0.299 nM
EC50 [5]: 0.222 nM
binding result [6]: no binding (tested: 100 nM)
EC50 [7]: 0.16 nM
EC50 [8]: 0.199 nM
EC50 [9]: 0.903 nM
EC50 [10]: 0.0114 nM
EC50 [11]: 0.684 nM
EC50 [12]: 0.267 nM
EC50 [13]: 0.24 nM
EC50 [14]: 0.774 nM
IC50 (so in the source), NFAT-luciferase luminescence, hPD-L1/hPD-1 reporter cell assay [15]: 0.714 nM
IC50 [16]: 2.28 nM
IC50 (so in the source), luminescence (axis printed OD450), 293T-PD-L1-CD3L cells with Jurkat-NFAT-Luc-PD1 cells [17]: 0.994 nM

B2: AM4B6-hIgG1-SIRPα (other)
heavy: QVQLVQSGAEVKKPGASVKVSCKASGYVFTDYYMNWVRQAPGQSLEWMGDINPNNAETLYNHKFKGRVTVTVDKSISTAYMELSRLRSDDTAVYYCVKWGDGPFAYWGQGTLVTVSSASTKGPSVFPLAPSSKSTSGGTAALGCLVKDYFPEPVTVSWNSGALTSGVHTFPAVLQSSGLYSLSSVVTVPSSSLGTQTYICNVNHKPSNTKVDKKVEPKSCDKTHTCPPCPAPEFEGGPSVFLFPPKPKDTLMISRTPEVTCVVVDVSHEDPEVKFNWYVDGVEVHNAKTKPREEQYNSTYRVVSVLTVLHQDWLNGKEYKCKVSNKALPASIEKTISKAKGQPREPQVYTLPPSRDELTKNQVSLTCLVKGFYPSDIAVEWESNGQPENNYKTTPPVLDSDGSFFLYSKLTVDKSRWQQGNVFSCSVMHEALHNHYTQKSLSLSPGAGGGGSGGGGSGGGGSGGGGSGEEELQIIQPDKSVLVAAGETATLRCTITSLFPVGPIQWFRGAGPGRVLIYNQRQGPFPRVTTVSDTTKRNNMDFSIRIGNITPADAGTYYCIKFRKGSPDDVEFKSGAGTELSVRAKPS
light: DIQMTQSPSSLSASVGDRVTITCKASQNVGAAVAWYQQKPGKAPKLLIYSVSDRYTGVPSRFSGSGSGTDFTLTISSLQPEDIATYYCQQYSNYPTFGQGTKLEIKRTVAAPSVFIFPPSDEQLKSGTASVVCLLNNFYPREAKVQWKVDNALQSGNSQESVTEQDSKDSTYSLSSTLTLSKADYEKHKVYACEVTHQGLSSPVTKSFNRGEC
notes: Symmetrical bifunctional antibody against PD-L1 and CD47 (SIRPα_CV1 on the heavy chain)
EC50 [18]: 0.154 nM
EC50 [19]: 0.24 nM

Results, then the binder that gave them:

EC50 [18]: 0.0853 nM
EC50 [19]: 0.167 nM
B3: AM4B6-hIgG1-SIRPα (KIH) (other)
heavy 1: B2 heavy with S354C, T366W
heavy 2: QVQLVQSGAEVKKPGASVKVSCKASGYVFTDYYMNWVRQAPGQSLEWMGDINPNNAETLYNHKFKGRVTVTVDKSISTAYMELSRLRSDDTAVYYCVKWGDGPFAYWGQGTLVTVSSASTKGPSVFPLAPSSKSTSGGTAALGCLVKDYFPEPVTVSWNSGALTSGVHTFPAVLQSSGLYSLSSVVTVPSSSLGTQTYICNVNHKPSNTKVDKKVEPKSCDKTHTCPPCPAPEFEGGPSVFLFPPKPKDTLMISRTPEVTCVVVDVSHEDPEVKFNWYVDGVEVHNAKTKPREEQYNSTYRVVSVLTVLHQDWLNGKEYKCKVSNKALPASIEKTISKAKGQPREPQVCTLPPSRDELTKNQVSLSCAVKGFYPSDIAVEWESNGQPENNYKTTPPVLDSDGSFFLVSKLTVDKSRWQQGNVFSCSVMHEALHNHYTQKSLSLSPGK
light: B2 light
notes: Asymmetric (knob into hole) bifunctional antibody

IC50, IL-6 release (pg/mL) of HDF cells stimulated with human IL-1β [20]: 0.0141 nM
EC50 [21]: 0.0155 nM
EC50 [10]: 0.0349 nM
EC50 [14]: 1.4 nM
IC50 (so in the source), luminescence (axis printed OD450), 293T-PD-L1-CD3L cells with Jurkat-NFAT-Luc-PD1 cells [17]: 1.49 nM
B4: IgG-scFv-XOMA052-AM4B6 (bispecific antibody)
heavy: QVQLQESGPGLVKPSQTLSLTCSFSGFSLSTSGMGVGWIRQPSGKGLEWLAHIWWDGDESYNPSLKSRLTISKDTSKNQVSLKITSVTAADTAVYFCARNRYDPPWFVDWGQGTLVTVSSASTKGPSVFPLAPSSKSTSGGTAALGCLVKDYFPEPVTVSWNSGALTSGVHTFPAVLQSSGLYSLSSVVTVPSSSLGTQTYICNVNHKPSNTKVDKKVEPKSCDKTHTCPPCPAPEFEGGPSVFLFPPKPKDTLMISRTPEVTCVVVDVSHEDPEVKFNWYVDGVEVHNAKTKPREEQYNSTYRVVSVLTVLHQDWLNGKEYKCKVSNKALPASIEKTISKAKGQPREPQVYTLPPSRDELTKNQVSLTCLVKGFYPSDIAVEWESNGQPENNYKTTPPVLDSDGSFFLYSKLTVDKSRWQQGNVFSCSVMHEALHNHYTQKSLSLSPGAGGGGSGGGGSGGGGSGGGGSQVQLVQSGAEVKKPGASVKVSCKASGYVFTDYYMNWVRQAPGQSLEWMGDINPNNAETLYNHKFKGRVTVTVDKSISTAYMELSRLRSDDTAVYYCVKWGDGPFAYWGQGTLVTVSSGGGGSGGGGSGGGGSGGGGSDIQMTQSPSSLSASVGDRVTITCKASQNVGAAVAWYQQKPGKAPKLLIYSVSDRYTGVPSRFSGSGSGTDFTLTISSLQPEDIATYYCQQYSNYPTFGQGTKLTVL
light: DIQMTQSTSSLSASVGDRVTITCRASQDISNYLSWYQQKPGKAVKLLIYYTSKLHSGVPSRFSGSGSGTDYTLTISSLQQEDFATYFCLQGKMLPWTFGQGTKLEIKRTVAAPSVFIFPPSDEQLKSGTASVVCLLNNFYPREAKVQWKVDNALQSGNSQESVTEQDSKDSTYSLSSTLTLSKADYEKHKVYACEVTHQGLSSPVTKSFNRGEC
notes: Anti-IL-1β IgG (Gevokizumab) with the AM4B6 scFv on the C-terminus of the heavy chain
